This is an account of results in patent publication US10260068B2, “Prophylactic agent and therapeutic agent for fibrodysplasia ossificans progressiva” (Sumitomo Dainippon Pharma Co., Ltd., priority 2014, dated 2019).

For assay [1], the system named is FOP patient derived cells. Put plainly: Evaluation of binding inhibitors: chondrocyte differentiation of FOP patient derived cells in copresence of human activin A. The following applies: copresence of 30 ng/mL human activin A, 6 days; vs activin-treated group. The assay is classed as cell-based. The procedure:
Patient iPS cell line-derived mesenchymal stem cell-like cells were prepared by the same method as Example 1. The mesenchymal stem cell-like cells were cultured for 6 days by the same method as Example 3, for differentiation to chondrocytes. The effect of each factor on differentiation to chondrocytes was examined, with neutralizing antibody for human activin A (product of R&D Systems, Inc., trade name: Human/Mouse/Rat Activin A βA subunit Antibody), follistatin (product of R&D Systems, Inc., trade name: Recombinant Human Follistatin 315 as 30-344), follistatin-like 3 (product of R&D Systems, Inc., trade name: Recombinant Human Follistatin-related Gene Protein/FLRG), ACVR2A-Fc chimeric protein (product of R&D Systems, Inc., trade name: Recombinant Human Activin RIIA Fc Chimera (CHO)), or ACVR2B-Fc chimeric protein (product of R&D Systems, Inc., trade name: Recombinant Human Activin RIIB Fc Chimera), in the copresence of 30 ng/mL of human activin A. The ACVR2A-Fc chimeric protein is a fusion protein in which a polypeptide fragment having the amino acid sequence of positions 20 to 134 of the amino acid sequence listed as SEQ ID NO: 12, and the Fc region of the human-derived antibody, are bonded via a linker sequence (Ile-Glu-Gly-Arg-Met-Asp). The ACVR2B-Fc chimeric protein is a fusion protein in which a polypeptide fragment having the amino acid sequence of positions 19 to 134 of the amino acid sequence listed as SEQ ID NO: 14, and the Fc region of the human-derived antibody, are bonded via a linker sequence (Ile-Glu-Gly-Arg-Met-Asp). The extent of differentiation to chondrocytes was evaluated by Alcian blue staining and sulfated glycosaminoglycan assay, similar to Example 3. In FIG. 6(B), the bar graph indicates the mean values for each treated group, and the error bars represent S.D.

Assay [2] deals with FOP patient derived cells. Put plainly: Differentiation to chondrocytes (Alcian blue, sulfated glycosaminoglycan assay) of FOP patient derived cells. The class given is cell-based, human. The method, then: (§1) Mesenchymal stem cell-like cells from a patient iPS cell line and a gene-corrected iPS cell clone were each prepared by the same method as Example 1. The mesenchymal stem cell-like cells were cultured for 6 days under the medium conditions used in the method of Umeda et al. (Sci. Rep., 2012, 2, 455), for differentiation to chondrocytes. During differentiation, 100 ng/mL of human activin A, 100 ng/mL of human BMP-7 or 1 ng/mL of human TGF-β3 (product of R&D Systems, Inc., trade name: Recombinant Human TGF-beta 3) was added and the effect of each factor on differentiation to chondrocytes was examined. The extent of differentiation to chondrocytes was measured with Alcian blue dye and a sulfated glycosaminoglycan assay kit (product of Biocolor, Ltd., trade name: Blyscan Glycosaminoglycan Assay Kit). In FIG. 4, the bar graph indicates the mean values for each treated group, and the error bars represent S.D.

Assay [3] has as its system gene-corrected clone derived cells. As to the kind of experiment: Differentiation to chondrocytes (sulfated glycosaminoglycan assay) of gene-corrected clone derived cells. The class given is cell-based, human. The following applies: 100 ng/mL BMP-7 or 1 ng/mL TGF-β3, 6 days, vs untreated group. The procedure: as §1

B1: follistatin-like 3: Recombinant Human Follistatin-related Gene Protein/FLRG (R&D Systems) (protein, listed as Homo sapiens)
chain: MRPGAPGPLWPLPWGALAWAVGFVSSMGSGNPAPGGVCWLQQGQEATCSLVLQTDVTRAECCASGNIDTAWSNLTHPGNKINLLGFLGLVHCLPCKDSCDGVECGPGKACRMLGGRPRCECAPDCSGLPARLQVCGSDGATYRDECELRAARCRGHPDLSVMYRGRCRKSCEHVVCPRPQSCVVDQTGSAHCVVCRAAPCPVPSSPGQELCGNNNVTYISSCHMRQATCFLGRSIGVRHAGSCAGTPEEPPGGESAEEEENFV
In the case of B1, in assay [1], the “differentiation of FOP patient derived cells to chondrocytes (Alcian blue staining, sulfated glycosaminoglycan assay)” value (“differentiation” for short) was “inhibited”.

B2: ACVR2B-Fc chimeric protein: Fusion of positions 19 to 134 of SEQ ID NO: 14 with human antibody Fc region via linker Ile-Glu-Gly-Arg-Met-Asp (protein)
chain: SGRGEAETRECIYYNANWELERTNQSGLERCEGEQDKRLHCYASWRNSSGTIELVKKGCWLDDFNCYDRQECVATEENPQVYFCCCEGNFCNERFTHLPEAGGPEVTYEPPPTAPTIEGRMD
modifications: left off: a dimerising Fc or GST
Consider B2, for which the “differentiation” value in assay [1] is listed as “inhibited”.

B3: TGF-β3: Recombinant Human TGF-beta 3 (R&D Systems) (protein, UniProt P10600 301-412, looked up)
Transforming growth factor …: ALDTNYCFRNLEENCCVRPLYIDFRQDLGWKWVHEPKGYYANFCSGPCPYLRSADTTHSTVLGLYNTLNPEASASPCCVPQDLEPLTILYYVGRTPKVEQLSNMVVKSCKCS
For B3, in assay [2] (1 ng/mL TGF-β3, 6 days), the “difference in cartilage induction between FOP patient derived cells and gene-corrected clone derived cells” value is “no significant difference”. In addition, in assay [2] (100 ng/mL BMP-7 or 1 ng/mL TGF-β3, 6 days), the “cartilage induction effect compared to the effect exhibited by activin A on FOP patient derived cells” value was “weaker”. The “cartilage induction (sulfated glycosaminoglycan assay)” value in assay [2] (FOP patient derived cells, 100 ng/mL activin A, 100 ng/mL BMP-7 or 1 ng/mL TGF-β3, 6 days, vs untreated group) is on record as “significantly enhanced”; in assay [3], “significantly enhanced”.

B4: follistatin: Recombinant Human Follistatin 315 (R&D Systems) (protein)
chain: GNCWLRQAKNGRCQVLYKTELSKEECCSTGRLSTSWTEEDVNDNTLFKWMIFNGGAPNCIPCKETCENVDCGPGKKCRMNKKNKPRCVCAPDCSNITWKGPVCGLDGKTYRNECALLKARCKEQPELEVQYQGRCKKTCRDVFCPGSSTCVVDQTNNAYCVTCNRICPEPASSEQYLCGNDGVTYSSACHLRKATCLLGRSIGLAYEGKCIKAKSCEDIQCTGGKKCLWDFKVGRGRCSLCDELCPDSKSDEPVCASDNATYASECAMKEAACSSGVLLEVKHSGSCNSISEDTEEEEEDEDQDYSFPISSILEW
Turning to B4, the “differentiation” value in assay [1] is given as “inhibited”.
